Columns and labels:
[1] = molecular target: SARS-CoV-2 spike (B.1.351, South Africa, Beta) (SARS-CoV-2); experiment: MSD V-PLEX ACE2 kit, sVNT, positive control; competitor ACE2 (NHP study)
[2] = molecular target: SARS-CoV-2 spike (P.1, Brazil, Gamma) (SARS-CoV-2); experiment: as above
[3] = molecular target: SARS-CoV-2 spike (B.1.1.7, UK, Alpha) (SARS-CoV-2); experiment: as above
[4] = molecular target: SARS-CoV-2 spike (B.1.351, South Africa, Beta) (SARS-CoV-2); experiment: MSD V-PLEX ACE2 kit, sVNT, positive control; competitor ACE2 (mouse study)
[5] = molecular target: SARS-CoV-2 spike (P.1, Brazil, Gamma) (SARS-CoV-2); experiment: as above
[6] = molecular target: SARS-CoV-2 spike (B.1.1.7, UK, Alpha) (SARS-CoV-2); experiment: as above

Measured: ACE2-binding percent inhibition

ACE2 Calibration Reagent (included in the MSD kit)
100%: [1] | [2] | [3] | [4] | [5] | [6]
